What was measured:
[1] = system: Con A-induced suppression; assay: Reversal of Con A-induced suppression of the splenic plaque-forming cell (PFC) response to SRBC in mice; type: in vivo; settings: for Geom. Mean of PFC/Spleen On Day 5, Expt. 2 / Immunomodulatory activity against suppression induced by 5 μg Con A (result in words): LA-PF4 0.6 μg; for Immunomodulatory activity against suppression induced by 5 μg Con A (result in words): concentrations well below those in serum: PDGF 0.003 μg, purified PF4 0.2 to 0.6 μg per mouse; for Reversal of Con A-induced suppression (result in words): mice, PFC response to SRBC
Method: Concanavalin A (Miles--Yeda Ltd., Research Products, Israel) was reconstituted with saline and kept frozen. Dilutions from the frozen stock were stored at 4° C. and injected i.v. into mice one day prior to antigen, sheep erythrocytes (SRBC). SRBC were obtained from Colorado Serum Company (Denver, Colorado) washed, counted and injected intraperitoneally (i.p.) in mice. Human serum or platelet releasate was administered i.v. one to two hours before Con A i.v.
The spleens of the mice were assayed for plaque-forming cells (PFC) on day 5 after injection of sheep red blood cells. The assay employed was as follows: single-cell suspensions were prepared from individual spleens of mice. The cells were suspended in Hanks' Balanced Salt Solution (Gibco Laboratories, Grand Island, New York) and washed. Direct PFC were enumerated using the well-known method of Jerne, N.K. et al (in Cell-Bound Antibody, Amos, E. and Koprowsky, H. eds., Wistar Institute Press. pp. 109-111, […]) with the slide modification of Mishell, R.I. and Dutton, R.W. (J. Exp. Med. 126:423, 1967), both incorporated by reference. […]
When treated with thrombin or A23187 (Calcium ionophore), platelets also release alpha granule constituents other than PF4. In particular, they release LA-PF4 and PDGF. The inventors tested the ability of LA-PF4 and PDGF to overcome suppression induced by 5 μg Con A. […]
Mice were injected with 10 micrograms of Con A i.v. on day -1 (except in the positive control, which received no Con A) and on day 0 with 2.5×10^6 SRBC per mouse as in Example 2 above. On day -1, the mice also received either: Nothing (100% control), Con A only, platelet releasate (equivalent to the amount of PF4 holoprotein contained in the platelet releasate from 2×10^7 platelets or about 0.12 microgram/mouse) and various concentrations of the above-mentioned synthetic C-terminal peptide of human PF4.

PFC response to SRBC = PFC response to SRBC in mice not injected with Con A (adjuvant effect); parameters: species or system CB6F1 mouse; settings: mouse, in vivo
Method: The spleens of the mice were assayed for plaque-forming cells (PFC) on day 5 after injection of sheep red blood cells. The assay employed was as follows: single-cell suspensions were prepared from individual spleens of mice. The cells were suspended in Hanks' Balanced Salt Solution (Gibco Laboratories, Grand Island, New York) and washed. Direct PFC were enumerated using the well-known method of Jerne, N.K. et al (in Cell-Bound Antibody, Amos, E. and Koprowsky, H. eds., Wistar Institute Press. pp. 109-111, […]) with the slide modification of Mishell, R.I. and Dutton, R.W. (J. Exp. Med. 126:423, 1967), both incorporated by reference.
In order to confirm and expand this finding, 1 ml o serum, diluted 1:2, was absorbed twice for thirty minutes at 4° C. using half the number of cells for each absorption as are listed for spleen (Sp1), lymphnode (LN) and thymus (Thy) in Table 3. Each CB6F1 mouse received 0.2 ml of a 1:4 dilution of absorbed or unabsorbed serum i.v. one to two hours before administration of 2×10^6 SRBC i.v. Plaque-forming cell response was measured as in Example 2.

[2] = 5 μg Con A, n = 4, PF4 0.2 to 0.6 μg per mouse

B1: LA-PF4: low-affinity platelet factor 4, platelet alpha-granule constituent (protein, UniProt P02775 44-128, looked up)
Connective tissue-activating …: NLAKGKEESLDSDLYAELRCMCIKTTSGIHPKNIQSLEVIGKGTHCNQVEVIATLKDGRKICLDPDAPRIKKIVQKKLAGDESAD
modifications: Connective tissue-activating peptide III
[1]; [2]
  Geom. Mean of PFC/Spleen On Day 5, Expt. 2: 9,440 PFC/Spleen
[1]
  Immunomodulatory activity against suppression induced by 5 μg Con A (result in words): a small amount
  Reversal of Con A-induced suppression (result in words): no significant immunomodulating activity

B2: PF4: human platelet factor 4 purified from platelet releasate on heparin-agarose (protein, UniProt P02776 32-101, looked up)
Platelet factor 4: EAEEDGDLQCLCVKTTSQVRPRHITSLEVIKAGPHCPTAQLIATLKNGRKICLDLQAPLYKKIIKKLLES
[1]; [2]
  Geom. Mean of PFC/Spleen On Day 5, Expt. 2: 22,910 PFC/Spleen
[1]; 5 μg Con A, n = 4, PF4 0.2 to 0.6 μg per mouse, PF4 + heparin mixture diluted 1:15, 0.2 ml per mouse
  Geom. Mean of PFC/Spleen On Day 5, Expt. 3: 34,420 PFC/Spleen
[1]
  Immunomodulatory activity against suppression induced by 5 μg Con A (result in words): very marked activity
  Reversal of Con A-induced suppression (result in words): able to overcome Con A-induced suppression in a dose-dependent fashion
PFC response to SRBC
  Enhancement of antibody (PFC) response without immunosuppressive agent (result in words): can also stimulate antibody formation even in mammals not treated with an immunosuppressive agent
